Assay [1] addresses NPM1 (human wildtype nucleophosmin, residues 1 to 290) (human) (UniProt P06748). The assay is described as follows: SPR; Biacore T200; NPM1 immobilised on CM5 chip by amine coupling, DDX24 injected in a concentration series; PBS with 0.05% Tween-20 and 1% DMSO, pH 7.4, 25 °C; Langmuir 1:1 binding model. (In general: In SPR one partner is held on a chip, and binding of the other changes the refractive index at the surface.)

Assay [2] deals with DDX24^E271K (DDX24 with the p.Glu271Lys mutation of MOVLD patients) (human) (UniProt Q9GZR7). The experiment in a line: SPR; Biacore T200; DDX24 immobilised on CM5 chip by amine coupling, NPM1 injected in a concentration series; PBS with 0.05% Tween-20 and 1% DMSO, pH 7.4, 25 °C; Langmuir 1:1 binding model.

The Kd is the concentration at which binding is half-saturated. Lower therefore signals a tighter complex. For orientation: koff means the rate constant with which the complex falls apart. Broadly, the kon is the rate constant with which the complex forms. A low value points to slower complex formation.

NPM1 (human wildtype nucleophosmin, residues 1 to 290) (human), sequence (P06748 1-290): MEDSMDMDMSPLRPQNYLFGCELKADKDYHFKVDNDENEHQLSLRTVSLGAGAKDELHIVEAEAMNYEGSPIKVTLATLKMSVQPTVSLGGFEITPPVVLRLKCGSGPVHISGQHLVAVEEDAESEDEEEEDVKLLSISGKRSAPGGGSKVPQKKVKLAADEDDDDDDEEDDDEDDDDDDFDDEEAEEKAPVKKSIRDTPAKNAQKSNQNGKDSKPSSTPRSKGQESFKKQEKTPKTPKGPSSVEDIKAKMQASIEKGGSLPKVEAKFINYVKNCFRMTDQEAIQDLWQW
NPM1 (human wildtype nucleophosmin, residues 1 to 290), sequence (P06748 1-290): as above

On to “DDX24^E271K (DDX24 with the p.Glu271Lys mutation of MOVLD patients) (from UniProt Q9GZR7 28-859) (enzyme)”, for which, in assay [1], the Kd was 5.5 nM, the off-rate constant (koff) turned out to be 0.00316 s⁻¹ and the kon is 575000 M⁻¹ s⁻¹.

Consider “NPM1 (human wildtype nucleophosmin, residues 1 to 290) (from UniProt P06748 1-290) (natural protein)”, for which, in assay [2], the Kd was found to be 2.92 nM, the koff was determined as 0.00165 s⁻¹ and the kon is 564000 M⁻¹ s⁻¹.

The values above are taken from paper PMC10496494.
